Source: the Human Domainome abundance scans (Beltran et al. 2025)
± gives the uncertainty stated by the source.

experiment: abundance fitness (aPCA) (normalised: wild type 0, dead -1); higher = more abundant; growth selection in yeast, the domain comes from the species named; conditions: Homo sapiens

| Substance | abundance fitness |
| --- | --- |
| Lipoamide acyltransferase component of branched-chain alpha-keto acid dehydrogenase complex, mitochondrial I186C, P11182 | -0.239 ± 0.074 |
| Lipoamide acyltransferase component of branched-chain alpha-keto acid dehydrogenase complex, mitochondrial I186D, P11182 | -0.81 ± 0.077 |
| Lipoamide acyltransferase component of branched-chain alpha-keto acid dehydrogenase complex, mitochondrial I186E, P11182 | -0.543 ± 0.065 |
| Lipoamide acyltransferase component of branched-chain alpha-keto acid dehydrogenase complex, mitochondrial I186F, P11182 | -0.9 ± 0.18 |
| Lipoamide acyltransferase component of branched-chain alpha-keto acid dehydrogenase complex, mitochondrial I186G, P11182 | -0.748 ± 0.042 |
| Lipoamide acyltransferase component of branched-chain alpha-keto acid dehydrogenase complex, mitochondrial I186H, P11182 | -0.679 ± 0.091 |
| Lipoamide acyltransferase component of branched-chain alpha-keto acid dehydrogenase complex, mitochondrial I186K, P11182 | -0.533 ± 0.4 |
| Lipoamide acyltransferase component of branched-chain alpha-keto acid dehydrogenase complex, mitochondrial I186L, P11182 | -0.32 ± 0.057 |
| Lipoamide acyltransferase component of branched-chain alpha-keto acid dehydrogenase complex, mitochondrial I186M, P11182 | -0.419 ± 0.069 |
| Lipoamide acyltransferase component of branched-chain alpha-keto acid dehydrogenase complex, mitochondrial I186N, P11182 | -0.735 ± 0.097 |
| Lipoamide acyltransferase component of branched-chain alpha-keto acid dehydrogenase complex, mitochondrial I186P, P11182 | -0.918 ± 0.11 |
| Lipoamide acyltransferase component of branched-chain alpha-keto acid dehydrogenase complex, mitochondrial I186R, P11182 | -0.722 ± 0.049 |
| Lipoamide acyltransferase component of branched-chain alpha-keto acid dehydrogenase complex, mitochondrial I186S, P11182 | -0.594 ± 0.064 |
| Lipoamide acyltransferase component of branched-chain alpha-keto acid dehydrogenase complex, mitochondrial I186T, P11182 | -0.484 ± 0.091 |
| Lipoamide acyltransferase component of branched-chain alpha-keto acid dehydrogenase complex, mitochondrial I186V, P11182 | -0.046 ± 0.046 |
| Lipoamide acyltransferase component of branched-chain alpha-keto acid dehydrogenase complex, mitochondrial I186W, P11182 | -1.05 ± 0.094 |
| Lipoamide acyltransferase component of branched-chain alpha-keto acid dehydrogenase complex, mitochondrial I200A, P11182 | -0.66 ± 0.048 |
| Lipoamide acyltransferase component of branched-chain alpha-keto acid dehydrogenase complex, mitochondrial I200C, P11182 | -0.589 ± 0.062 |
| Lipoamide acyltransferase component of branched-chain alpha-keto acid dehydrogenase complex, mitochondrial I200D, P11182 | -0.567 ± 0.21 |
| Lipoamide acyltransferase component of branched-chain alpha-keto acid dehydrogenase complex, mitochondrial I200E, P11182 | -0.558 ± 0.072 |
| Lipoamide acyltransferase component of branched-chain alpha-keto acid dehydrogenase complex, mitochondrial I200F, P11182 | -0.76 ± 0.097 |
| Lipoamide acyltransferase component of branched-chain alpha-keto acid dehydrogenase complex, mitochondrial I200G, P11182 | -0.667 ± 0.045 |
| Lipoamide acyltransferase component of branched-chain alpha-keto acid dehydrogenase complex, mitochondrial I200H, P11182 | -0.678 ± 0.089 |
| Lipoamide acyltransferase component of branched-chain alpha-keto acid dehydrogenase complex, mitochondrial I200L, P11182 | -0.334 ± 0.043 |

| Substance | abundance fitness |
| --- | --- |
| Lipoamide acyltransferase component of branched-chain alpha-keto acid dehydrogenase complex, mitochondrial I200M, P11182 | -0.563 ± 0.061 |
| Lipoamide acyltransferase component of branched-chain alpha-keto acid dehydrogenase complex, mitochondrial I200N, P11182 | -0.711 ± 0.28 |
| Lipoamide acyltransferase component of branched-chain alpha-keto acid dehydrogenase complex, mitochondrial I200P, P11182 | -0.483 ± 0.05 |
| Lipoamide acyltransferase component of branched-chain alpha-keto acid dehydrogenase complex, mitochondrial I200Q, P11182 | -0.643 ± 0.07 |
| Lipoamide acyltransferase component of branched-chain alpha-keto acid dehydrogenase complex, mitochondrial I200R, P11182 | -0.764 ± 0.045 |
| Lipoamide acyltransferase component of branched-chain alpha-keto acid dehydrogenase complex, mitochondrial I200S, P11182 | -0.76 ± 0.042 |
| Lipoamide acyltransferase component of branched-chain alpha-keto acid dehydrogenase complex, mitochondrial I200T, P11182 | -0.625 ± 0.06 |
| Lipoamide acyltransferase component of branched-chain alpha-keto acid dehydrogenase complex, mitochondrial I200V, P11182 | -0.021 ± 0.039 |
| Lipoamide acyltransferase component of branched-chain alpha-keto acid dehydrogenase complex, mitochondrial I200W, P11182 | -0.852 ± 0.063 |
| Lipoamide acyltransferase component of branched-chain alpha-keto acid dehydrogenase complex, mitochondrial I205A, P11182 | -0.356 ± 0.041 |
| Lipoamide acyltransferase component of branched-chain alpha-keto acid dehydrogenase complex, mitochondrial I205C, P11182 | -0.16 ± 0.052 |
| Lipoamide acyltransferase component of branched-chain alpha-keto acid dehydrogenase complex, mitochondrial I205E, P11182 | -0.289 ± 0.047 |
| Lipoamide acyltransferase component of branched-chain alpha-keto acid dehydrogenase complex, mitochondrial I205G, P11182 | -0.359 ± 0.037 |
| Lipoamide acyltransferase component of branched-chain alpha-keto acid dehydrogenase complex, mitochondrial I205H, P11182 | -0.408 ± 0.064 |
| Lipoamide acyltransferase component of branched-chain alpha-keto acid dehydrogenase complex, mitochondrial I205K, P11182 | -0.302 ± 0.052 |
| Lipoamide acyltransferase component of branched-chain alpha-keto acid dehydrogenase complex, mitochondrial I205L, P11182 | -0.086 ± 0.037 |
| Lipoamide acyltransferase component of branched-chain alpha-keto acid dehydrogenase complex, mitochondrial I205M, P11182 | -0.28 ± 0.054 |
| Lipoamide acyltransferase component of branched-chain alpha-keto acid dehydrogenase complex, mitochondrial I205N, P11182 | -0.551 ± 0.11 |
| Lipoamide acyltransferase component of branched-chain alpha-keto acid dehydrogenase complex, mitochondrial I205Q, P11182 | -0.302 ± 0.048 |
| Lipoamide acyltransferase component of branched-chain alpha-keto acid dehydrogenase complex, mitochondrial I205R, P11182 | -0.343 ± 0.035 |
| Lipoamide acyltransferase component of branched-chain alpha-keto acid dehydrogenase complex, mitochondrial I205S, P11182 | -0.332 ± 0.05 |
| Lipoamide acyltransferase component of branched-chain alpha-keto acid dehydrogenase complex, mitochondrial I205T, P11182 | -0.337 ± 0.057 |
| Lipoamide acyltransferase component of branched-chain alpha-keto acid dehydrogenase complex, mitochondrial I205V, P11182 | 0.028 ± 0.042 |
| Lipoamide acyltransferase component of branched-chain alpha-keto acid dehydrogenase complex, mitochondrial I205W, P11182 | -0.629 ± 0.056 |
